Assays:
[1] = target: β’ subunit of E. coli RNAP (E. coli, UniProt P0A8T7 1-1407); assay: cryo-EM structure
[2] = target: β subunit of E. coli RNAP (E. coli, UniProt P0A8V2 1-1342); assay: cryo-EM structure
Chain of β subunit of E. coli RNAP (P0A8V2 whole entry): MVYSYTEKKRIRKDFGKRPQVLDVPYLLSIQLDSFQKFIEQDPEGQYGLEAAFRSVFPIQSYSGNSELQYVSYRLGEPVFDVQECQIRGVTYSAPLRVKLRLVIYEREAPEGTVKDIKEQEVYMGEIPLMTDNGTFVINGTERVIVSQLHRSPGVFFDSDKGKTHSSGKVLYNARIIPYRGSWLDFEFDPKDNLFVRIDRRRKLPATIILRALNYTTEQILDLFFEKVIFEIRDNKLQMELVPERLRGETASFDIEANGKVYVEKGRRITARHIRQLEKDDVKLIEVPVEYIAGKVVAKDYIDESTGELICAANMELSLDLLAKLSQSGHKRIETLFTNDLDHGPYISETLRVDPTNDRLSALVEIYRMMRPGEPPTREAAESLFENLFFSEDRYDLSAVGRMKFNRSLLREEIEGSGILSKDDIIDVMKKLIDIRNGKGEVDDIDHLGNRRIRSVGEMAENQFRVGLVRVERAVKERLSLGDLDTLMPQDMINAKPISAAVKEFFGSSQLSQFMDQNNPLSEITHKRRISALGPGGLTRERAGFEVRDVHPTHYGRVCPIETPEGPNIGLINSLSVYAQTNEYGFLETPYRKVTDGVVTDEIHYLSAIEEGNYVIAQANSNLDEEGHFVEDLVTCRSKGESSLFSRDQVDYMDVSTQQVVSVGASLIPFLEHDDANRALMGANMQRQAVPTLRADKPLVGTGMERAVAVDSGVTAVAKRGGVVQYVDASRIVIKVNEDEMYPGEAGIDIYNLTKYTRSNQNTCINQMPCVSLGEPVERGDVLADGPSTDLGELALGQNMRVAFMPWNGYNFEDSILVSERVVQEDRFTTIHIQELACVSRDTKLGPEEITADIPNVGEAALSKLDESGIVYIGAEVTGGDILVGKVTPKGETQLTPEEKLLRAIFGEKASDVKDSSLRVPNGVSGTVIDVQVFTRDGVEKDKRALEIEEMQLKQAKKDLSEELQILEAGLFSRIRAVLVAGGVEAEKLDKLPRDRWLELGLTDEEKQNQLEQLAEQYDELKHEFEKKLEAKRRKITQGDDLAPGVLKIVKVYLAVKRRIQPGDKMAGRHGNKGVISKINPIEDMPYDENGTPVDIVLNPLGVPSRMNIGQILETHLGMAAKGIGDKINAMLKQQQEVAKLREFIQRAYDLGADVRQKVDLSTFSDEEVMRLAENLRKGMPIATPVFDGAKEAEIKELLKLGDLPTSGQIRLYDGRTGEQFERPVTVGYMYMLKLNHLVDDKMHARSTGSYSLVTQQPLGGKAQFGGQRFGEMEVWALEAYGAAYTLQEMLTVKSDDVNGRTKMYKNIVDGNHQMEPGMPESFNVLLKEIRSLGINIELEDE

Chain of β’ subunit of E. coli RNAP (P0A8T7 whole entry): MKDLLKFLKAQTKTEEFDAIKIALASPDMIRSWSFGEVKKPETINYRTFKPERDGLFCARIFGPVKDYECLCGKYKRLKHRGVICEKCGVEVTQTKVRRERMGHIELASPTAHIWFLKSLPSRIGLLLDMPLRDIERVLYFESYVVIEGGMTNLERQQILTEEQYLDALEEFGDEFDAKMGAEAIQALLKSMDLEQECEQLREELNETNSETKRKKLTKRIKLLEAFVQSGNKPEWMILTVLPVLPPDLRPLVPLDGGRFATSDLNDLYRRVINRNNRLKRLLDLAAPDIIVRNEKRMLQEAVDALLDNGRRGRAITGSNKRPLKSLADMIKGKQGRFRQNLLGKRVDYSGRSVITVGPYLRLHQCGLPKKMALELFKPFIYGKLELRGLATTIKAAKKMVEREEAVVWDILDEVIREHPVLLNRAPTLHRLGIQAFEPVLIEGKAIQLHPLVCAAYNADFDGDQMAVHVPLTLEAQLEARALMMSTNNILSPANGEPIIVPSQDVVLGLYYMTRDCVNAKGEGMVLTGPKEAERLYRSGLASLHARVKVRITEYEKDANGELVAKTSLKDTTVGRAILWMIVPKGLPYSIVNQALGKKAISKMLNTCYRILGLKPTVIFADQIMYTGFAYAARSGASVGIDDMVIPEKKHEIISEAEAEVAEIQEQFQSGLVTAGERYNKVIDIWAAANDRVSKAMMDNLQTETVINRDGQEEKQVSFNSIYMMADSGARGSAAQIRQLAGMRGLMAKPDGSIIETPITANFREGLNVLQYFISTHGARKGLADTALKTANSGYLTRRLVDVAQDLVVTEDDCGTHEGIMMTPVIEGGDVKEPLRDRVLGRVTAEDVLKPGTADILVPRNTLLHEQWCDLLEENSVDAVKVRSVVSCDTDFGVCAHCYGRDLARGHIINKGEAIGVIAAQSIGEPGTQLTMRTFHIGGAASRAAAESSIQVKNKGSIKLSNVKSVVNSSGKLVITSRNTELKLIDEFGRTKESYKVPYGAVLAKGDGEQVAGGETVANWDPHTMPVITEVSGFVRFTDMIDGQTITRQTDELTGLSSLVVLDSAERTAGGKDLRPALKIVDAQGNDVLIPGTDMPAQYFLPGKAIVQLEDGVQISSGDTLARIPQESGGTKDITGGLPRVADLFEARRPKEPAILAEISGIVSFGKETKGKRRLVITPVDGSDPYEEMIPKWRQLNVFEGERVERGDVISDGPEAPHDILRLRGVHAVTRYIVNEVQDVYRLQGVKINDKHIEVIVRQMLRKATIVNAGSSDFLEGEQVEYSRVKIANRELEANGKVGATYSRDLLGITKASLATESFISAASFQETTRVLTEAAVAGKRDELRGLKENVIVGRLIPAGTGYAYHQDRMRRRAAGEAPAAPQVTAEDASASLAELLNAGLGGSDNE

B1: E. coli RapA protein (enzyme, UniProt P60240 1-968, looked up)
chain: MPFTLGQRWISDTESELGLGTVVAVDARTVTLLFPSTGENRLYARSDSPVTRVMFNPGDTITSHDGWQMQVEEVKEENGLLTYIGTRLDTEESGVALREVFLDSKLVFSKPQDRLFAGQIDRMDRFALRYRARKYSSEQFRMPYSGLRGQRTSLIPHQLNIAHDVGRRHAPRVLLADEVGLGKTIEAGMILHQQLLSGAAERVLIIVPETLQHQWLVEMLRRFNLRFALFDDERYAEAQHDAYNPFDTEQLVICSLDFARRSKQRLEHLCEAEWDLLVVDEAHHLVWSEDAPSREYQAIEQLAEHVPGVLLLTATPEQLGMESHFARLRLLDPNRFHDFAQFVEEQKNYRPVADAVAMLLAGNKLSNDELNMLGEMIGEQDIEPLLQAANSDSEDAQSARQELVSMLMDRHGTSRVLFRNTRNGVKGFPKRELHTIKLPLPTQYQTAIKVSGIMGARKSAEDRARDMLYPERIYQEFEGDNATWWNFDPRVEWLMGYLTSHRSQKVLVICAKAATALQLEQVLREREGIRAAVFHEGMSIIERDRAAAWFAEEDTGAQVLLCSEIGSEGRNFQFASHMVMFDLPFNPDLLEQRIGRLDRIGQAHDIQIHVPYLEKTAQSVLVRWYHEGLDAFEHTCPTGRTIYDSVYNDLINYLASPDQTEGFDDLIKNCREQHEALKAQLEQGRDRLLEIHSNGGEKAQALAESIEEQDDDTNLIAFAMNLFDIIGINQDDRGDNMIVLTPSDHMLVPDFPGLSEDGITITFDREVALAREDAQFITWEHPLIRNGLDLILSGDTGSSTISLLKNKALPVGTLLVELIYVVEAQAPKQLQLNRFLPPTPVRMLLDKNGNNLAAQVEFETFNRQLNAVNRHTGSKLVNAVQQDVHAILQLGEAQIEKSARALIDAARNEADEKLSAELSRLEALRAVNPNIRDDELTAIESNRQQVMESLDQAGWRLDALRLIVVTHQ
binding result [1]: binds
binding result [2]: binds
